The target in assay [1] is LexA-SoxS bait fusion protein (pGILDA-SoxS), wild type SoxS (Escherichia coli) (UniProt P0A9E2). As to the kind of experiment: two-hybrid.
Assay [2] has as its target T1, LexA-SoxS bait fusion protein (pGILDA-SoxS), wild type SoxS (Escherichia coli, UniProt P0A9E2 1-107).
T1 sequence (looked up): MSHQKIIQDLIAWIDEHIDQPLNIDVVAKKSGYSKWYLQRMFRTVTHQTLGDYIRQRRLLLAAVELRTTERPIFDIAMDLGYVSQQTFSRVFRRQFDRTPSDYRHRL
Nature of the assay: two-hybrid.

On to “B42AD-αCTD prey fusion protein (pB42AD-αCTD) (domain or fragment)”, for which the induction ratio of reporter β-galactosidase in assay [1] is 25.

B1: B42AD-σ^70 R4 prey fusion protein (pB42AD-σ^70 R4), wild type region 4 of σ^70 (domain or fragment, Escherichia coli, UniProt P00579 530-613, looked up)
chain: LPLDSATTESLRAATHDVLAGLTAREAKVLRMRFGIDMNTDYTLEEVGKQFDVTRERIRQIEAKALRKLRHPSRSEVLRSFLDD
Take B1: the “induction ratio of reporter β-galactosidase” value in assay [2] came to 14.

Source of the values: paper PMC2917807 (Journal of molecular biology, 2010).
